Test results: CN117736312A (SHANGHAI BOVAX BIOLOGICAL SCIENCE & TECH CO LTD, dated 2024)

Legend:
Test in all cases: sandwich ELISA (rabbit anti-L1 capture)
HPV11L1 = target: T1, HPV11L1 (human papillomavirus type 11, UniProt P04012 1-501)
T1 sequence: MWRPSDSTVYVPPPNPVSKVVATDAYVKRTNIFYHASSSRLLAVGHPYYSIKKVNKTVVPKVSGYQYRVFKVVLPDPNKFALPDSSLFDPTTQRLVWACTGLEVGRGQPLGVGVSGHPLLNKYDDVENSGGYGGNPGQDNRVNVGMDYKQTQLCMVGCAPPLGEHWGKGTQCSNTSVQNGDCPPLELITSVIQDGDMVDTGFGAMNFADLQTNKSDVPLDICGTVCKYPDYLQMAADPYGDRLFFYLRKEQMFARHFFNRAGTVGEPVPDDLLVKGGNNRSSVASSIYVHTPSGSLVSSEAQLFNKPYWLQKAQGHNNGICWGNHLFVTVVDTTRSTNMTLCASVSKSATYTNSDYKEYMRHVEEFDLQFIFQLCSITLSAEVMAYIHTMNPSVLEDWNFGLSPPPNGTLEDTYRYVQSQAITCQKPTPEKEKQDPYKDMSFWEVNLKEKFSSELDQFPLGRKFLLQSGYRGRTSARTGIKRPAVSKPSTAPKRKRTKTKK

HPV45L1 = target: T2, HPV45L1 (human papillomavirus type 45, UniProt P36741 30-539)
T2 sequence: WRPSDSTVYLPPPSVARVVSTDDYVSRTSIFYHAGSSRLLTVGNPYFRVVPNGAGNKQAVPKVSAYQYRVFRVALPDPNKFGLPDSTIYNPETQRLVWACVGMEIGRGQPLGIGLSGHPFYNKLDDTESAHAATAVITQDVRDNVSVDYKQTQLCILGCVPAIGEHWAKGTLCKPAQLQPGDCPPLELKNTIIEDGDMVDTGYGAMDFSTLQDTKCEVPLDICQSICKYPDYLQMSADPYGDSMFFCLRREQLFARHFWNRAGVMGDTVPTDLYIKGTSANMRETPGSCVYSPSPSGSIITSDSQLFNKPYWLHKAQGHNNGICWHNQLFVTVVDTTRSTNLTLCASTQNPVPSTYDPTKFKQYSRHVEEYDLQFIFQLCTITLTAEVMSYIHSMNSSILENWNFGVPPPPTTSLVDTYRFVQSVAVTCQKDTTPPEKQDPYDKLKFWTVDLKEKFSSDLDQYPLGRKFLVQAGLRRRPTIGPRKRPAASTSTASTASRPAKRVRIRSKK

HPV51L1 = target: T3, HPV51L1 (human papillomavirus type 51, UniProt P26536 1-504)
T3 sequence: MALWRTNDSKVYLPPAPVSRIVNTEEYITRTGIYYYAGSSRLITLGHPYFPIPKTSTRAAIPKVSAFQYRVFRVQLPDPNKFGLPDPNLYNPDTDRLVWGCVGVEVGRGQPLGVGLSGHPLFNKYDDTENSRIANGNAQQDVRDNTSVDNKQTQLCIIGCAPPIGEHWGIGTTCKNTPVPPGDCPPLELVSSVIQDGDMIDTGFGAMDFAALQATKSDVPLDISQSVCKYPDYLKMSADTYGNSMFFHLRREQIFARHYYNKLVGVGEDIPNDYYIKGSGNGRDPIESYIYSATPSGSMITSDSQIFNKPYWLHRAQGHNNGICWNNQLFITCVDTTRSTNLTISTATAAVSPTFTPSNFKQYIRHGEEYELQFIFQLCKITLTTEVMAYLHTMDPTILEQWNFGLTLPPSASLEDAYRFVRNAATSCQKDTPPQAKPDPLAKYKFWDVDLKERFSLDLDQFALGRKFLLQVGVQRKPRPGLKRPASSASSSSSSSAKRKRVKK

HPV31L1 = target: T4, HPV31L1 (human papillomavirus type 31, UniProt P17388 1-504)
T4 sequence: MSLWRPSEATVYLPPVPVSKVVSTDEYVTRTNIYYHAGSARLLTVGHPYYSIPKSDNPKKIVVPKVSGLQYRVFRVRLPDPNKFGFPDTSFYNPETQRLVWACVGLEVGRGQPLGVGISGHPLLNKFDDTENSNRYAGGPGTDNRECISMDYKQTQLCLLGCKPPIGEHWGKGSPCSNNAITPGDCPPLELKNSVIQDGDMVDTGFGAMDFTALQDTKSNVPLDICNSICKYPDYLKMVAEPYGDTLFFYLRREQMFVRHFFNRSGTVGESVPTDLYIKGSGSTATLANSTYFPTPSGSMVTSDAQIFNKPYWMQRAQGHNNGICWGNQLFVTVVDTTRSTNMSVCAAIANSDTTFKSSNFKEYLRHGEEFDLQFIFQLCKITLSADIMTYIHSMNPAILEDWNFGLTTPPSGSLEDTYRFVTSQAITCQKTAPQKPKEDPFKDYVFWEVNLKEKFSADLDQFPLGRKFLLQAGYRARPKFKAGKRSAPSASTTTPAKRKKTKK

HPV6L1 = target: T5, HPV6L1 (human papillomavirus type 6, UniProt P69899 1-500)
T5 construct: also called HPV 6 L1原液
T5 sequence: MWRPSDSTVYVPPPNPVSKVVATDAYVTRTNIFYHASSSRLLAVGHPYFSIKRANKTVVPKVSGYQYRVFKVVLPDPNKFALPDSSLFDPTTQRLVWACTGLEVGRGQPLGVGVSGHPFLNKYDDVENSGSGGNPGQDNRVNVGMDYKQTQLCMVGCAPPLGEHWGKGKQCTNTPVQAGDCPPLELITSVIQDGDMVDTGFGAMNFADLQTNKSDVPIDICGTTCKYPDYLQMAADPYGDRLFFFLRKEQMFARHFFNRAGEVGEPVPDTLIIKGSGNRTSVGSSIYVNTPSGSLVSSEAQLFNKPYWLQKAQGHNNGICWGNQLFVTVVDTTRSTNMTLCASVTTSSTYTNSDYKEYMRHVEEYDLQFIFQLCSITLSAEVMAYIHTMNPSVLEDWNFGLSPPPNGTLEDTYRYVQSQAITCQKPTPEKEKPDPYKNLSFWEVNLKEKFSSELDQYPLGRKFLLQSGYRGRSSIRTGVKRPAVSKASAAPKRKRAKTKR

B1: HPV 59编号为30单克隆抗体 (antibody, V domains shown)
VH: QIQLVQSGPELKKPGETVKISCKASGYTFTDYSMHWVKQAPGKGLKWMGWINTETGEPTYADDFKGRFAFSLETSASTAYLQINNLKIEDTATYFCTRDGYVWYFDVWGAGTTVTVSS
VL: QIVLSQSPAILSASPGEKVTMTCRASSSVNYMHWYQQKPGSSPKPWIYATSNLASGVPARFSGSGSGTSYSLTISRVEAEDAATYYCQQWSSNPIFTFGSGTKLEIK
notes: Mouse hybridoma antibody tested as cell supernatant; also called 59H30
binding result (HPV11L1): no binding (tested: 原液40μg/ml; 细胞上清1:100)
binding result (HPV45L1): no binding (tested: 原液40μg/ml; 细胞上清1:100)
binding result (HPV51L1): no binding (tested: 原液40μg/ml; 细胞上清1:100)
binding result (HPV31L1): no binding (tested: 原液40μg/ml; 细胞上清1:100)
binding result (HPV6L1): no binding (tested: 原液40μg/ml; 细胞上清1:100)
